The nature of the data set: soluble on expression in E. coli; label from the status in PepcDB or PDB records.
In the case of “MCTFCSIINRELEGYFVYEDEKFAAILDKYPVSLGHTLVIPKKHFENYLEADEDTLAELAKVVKLVSLGIKDAVKADGLRLLTNIGRSAGQVIFHLHVHIIPTWEGDYPDIFKSFKPRKEQEKEYYELLQKIIRESIENLKRKIGDYKWG”, the “soluble on expression in E. coli” value was “soluble”.
For the sequence “MSLKLVRKFARDIEVDELAICIPLEYKSACLIYELSRYTNVYAAKLDDFSTKPEVVSWLKEKGVEVKMKRDVVNAEYFLDCAAVLSRVAVKSGKERLKVVELTKTGEEYLRKMDVRMKAISLDSSTLKGTGENTHGTAFGLLDALLRLNVFLPGKKALILGFGRVGRGCARLLKSVGCDVAVWDNDETRQIEALYEGFRVEKDFTAEVVVTCTGVKGVLGKEELEEISDGSIILNMGAEMEIEPAGELIKDYGLVKEYEIAGKRYFLVADGYAANLALGSGTPIEVMDRTFSAAILALNHLSRSDFDGIIPLPHHIESTILEAIMMYEGHHHHHH”, the “soluble on expression in E. coli” value is on record as “not soluble”.
To “MEKLDGVANTLYVPLYGRIYVSKKFPEYFYDEMALKIEEKFTSGISKGSFEYTNMAYGARYYNMDKMIIKFIEEHKISNIILLGIGLETAYDRITQKCGLGEVNYYGIDLPEVIEIRKKYFGERKQETLIAGDMFEMEWKEQIDTSIPTLLIVSGVFQYFFEDKIIEFIKNLKKEFPYGELVFDTARKKTGLRFANWYIRRTGNLEALMHFYIEDSVDFSKKTDTILVEELTFFKDARELLRKKLNFITKLFMKIADSKRQALIIHLKWLEHHHHHH” belongs “not soluble”; to “MLHLIVLLVALSSAVTAGRPRRALDGLDGSGFGFDKRALNSLDGAGFGFEKRALNSLDGQGFGFEKRALDGLDGAGFGFDKRALNSLDGAGFGFEKRALDGLDGSGFGFDKRALNSLDGAGFGFEKRALNSLDGAGFGFEKRALDGLDGAGFGFDKRALNSLDGAGFGFEKRALDGLDGAGFGFDKRALNSLDGNGFGFDKRTFKHSSNKLRSVFRNLKGFKQH”, “not soluble”.
Regarding “MSDDDSSHDLPAANLQQLRLPDSASLRPAFSTHRPRILILYGSLRTVSYSRLLAEEARRLLEFFGAEVKVFDPSGLPLPDAAPVSHPKVQELRELSIWSEGQVWVSPERHGAMTGIMKAQIDWIPLSTGSIRPTQGKTLAVMQVSGGSQSFNAVNQMRILGRWMRMITIPNQSSVAKAFQEFDANGRMKPSSYYDRVVDVMEELVKFTLLTRDCSAYLTDRYSERKESAAELEHRVTLKSVHHHHHH”, the “soluble on expression in E. coli” value was “soluble”.
Take “MFRVLHLADLHLGYRPDLPAPVREEVYRARNRVLQAAVDLALDPRQGISLVLIAGDLFDNHRPEASLVEETIRQLTRLEAAGIQVITVPGNHDEITYNDAVYRREAGRWPGLLVTDPMPAKVATLKVKGDTCHLMAMAYTGGVTRVDGPLKAFPPAEGEGVNLAVFHGSLDWDGGERSLPLDGEALAAAGYDYIALGHIHRGGQRRLGRGLAVYAGMVAGKGFADPGTGSWTIVTLGDGPARVEQVPARVTPWRLVDLDVTAFQEPEELETAVRDALDPLEHHHHHH”: the “soluble on expression in E. coli” value is given as “not soluble”.
As for “MITFKPTRNIDLIEAVGNHPDIIAGSNNGDGYDYKPECRYFEVNVHGQFGGIVYYQEIQPLTLDCHAMYLPEIRGFSKEIGLAFWRYILTNTTVQCVTSFAARKFRHGQMYCAMIGLKRVGTIKKYFKGVDDVTFYSATREELIDFLNHGR”, the entry is “not soluble”; as for “MGSDKIHHHHHHMPIYVYWGEDDFAMEKAIAVLRDHVLDPNWISFNYTAFTPDQADAAIQALNQVMTPTFGAGGRLVWLINTTLYQHCPENVLAELVRSLSVIPENSFLLLSSRNKPDERLKSTKLLKQFATEFREFPLIPPWKTELLVQSVNQVAQTVGVKLTANTAQLLAESVGNDTRLLYNEIEKLRLYAYGSNKPLDVDTVTKLVRNTTQNSLQLAAAIRIGDTAKALTTLADMINASEPGLRIVATLIGQFRTWLWVKIMIESGERNQQAIAIAADIGNPKRIYFLQQEIKLLSVQQLISCLPLLLELEVSLKQGASEMSTFQTKVIELCQVCQGS”, “not soluble”.
In the case of “MGSDKIHHHHHHMLEQTLLDIALDLSQSLPKKALYQRFMTAVNQVMPCDAVALLEYQGHELVPVAVDGLLPEVLGMGFSPEDHPRLQAIMASKQPIRFNADSELADPYDGYLVIDPKRVLDVHACIGCSLFVEGRLVGVLTLDALNVGAFDAIDDITIATLAALAAATIRNVNLLNQLDRQQYKLDDNDSVFKQKPLKKSDFIGETPCMQALKDDIRIVANSELSVIIGGETGVGKELVARSLHAQSKRRAQALVQVNCAALPDTLAESELFGHSKGAFTGAAKDRMGKFELAHQGTLFLDEVGELSLELQAKLLRVIQEGEIQRIGLDRNIHVDVRIIAASNRNLLQRVKEGLFREDLYHRLCVYPLNVPPLRERQDDIPLLCGNILTNLKHKIGLSSAKTVRLTQAAMQKLQGYPWPGNVRELQHVLMRAALKASAEAKGITVIQLHHLTFACEPMSQGLTELTAFNSNSPDSNPSTSDETFAAANREEKVEPPVISRSFNDRVADFQRQVIRQSLDDNSQVWAKAARQLQLDRGNLHRQAKRLGLIP”, the “soluble on expression in E. coli” value is recorded as “not soluble”.
As for “PNRSISPSALQDLLRTLKSPSSPQQQQQVLNILKSNPQLMAAFIKQRTAKYVANQPGMQ”, the “soluble on expression in E. coli” value is on record as “soluble”.
As to “MSLTVKMGFIGFGKSANRYHLPYVMIRETLEVKTIFDLHVNEKAAAPFKEKGVNFTADLNELLTDPEIELITICTPAHTHYDLAKQAILAGKSVIVEKPFCDTLEHAEELFALGQEKGVVVMPYQNRRFDGDYLAMKQVVEQGFLGEINEVETHIDYYRPGSITEQGPKENGSFYGLGIHLMDRMIALFGRPDQVTYDIRNNEVSEAVDNYFDVDLHYGSKLKVKVKTNHSVASPYPRFIVHGSNGSFIKYGEDQQENDLKAGIMPDAPGFGEDSPMYYGEVTYRNGNGDWIKKQIKTPVGDYGRYYDAVYETLKNGAPQLVTKEQALTNIEILEAGFLNPSPSVYHLKENEGHHHHHH”, the “soluble on expression in E. coli” value is given as “soluble”.
“MPYLIIEHLEKISEWLLLEYRHTAQWWGDKLIFTNVKEPEERKILAEIGSVVAESVTKLPFDKSKLIILDPFAEEELKPEDIEEDSLIVVGGILGDFEFTGKTKEFITSKIEGAKARHIGSVQFSIDGASIIAKLISEGKRLEEIEYVESPTIKLDEFSEITLHYAVPKVNGKLLLTPGLIELQKKELGYMEEDVEDEELEKLFGGSLEHHHHHH”: the “soluble on expression in E. coli” value is on record as “soluble”.
To “PREEVARIHASSGTTGKPTVVGYTKNDLKVFAEVVARSLAAAGARPGMMLHNAYGYGLFTGGLGLHGGAEALGMTVVPVSGGMTERQVMLIQDFRPEVISCTPSYAQTLAEEFRKRGVSPEELSLEYAVLGAEPWTEAIRKQVDEGLGVKSTNIYGLSEIIGPGVSNECVEERQGSHI” belongs “not soluble”; to “TMLCVLTTDAAAEPAALERALRRAAAATFDRLDIDGSCSTNDTVLLLSSGASEIPPAQADLDEAVLRVCDDLCAQLQADAEGVTKRVTVTVTGAATEDDALVAARQIARDSLVKTALFGSDPNWGRVLAAVGMAPITLDPDRISVSFNGAAVCVHGVGAPGAREVDLSDADIDITVDLGVGDGQARIRTTDLSHAYVEENSAYSS”, “soluble”.
As for “MSRVKNVVELLETKGVDALYLTKKTNVNYISGFPDEEAYAVICKDGNFLVTDSRYMELAEKVCKDFEIINWHNFDRSVAKAVKSVCDKVGIKKLGFERTNIVFDKYEELKNLIEKDNGELIPTENIVETLRYVKDKDEIKNTRKACEIADKALEELIPHIKAGVSEIELATKLEYFMKMNGAQNIGFETILISGAKTSLLHGKPSDKIIEKGDFVLIDYGAMYNGYISDTTRTFIVGGASEKQLEIYNLVKEAQNVGVENMKAGVHATIPDAEIRKVVKKYEDYYYQGIGHGVGRDVHEEPFIGNYGDKIIEEGCIITMEPGIYFPGWGGVRIEDTVLITKNGPERLTKFPKDLMILDK”, the entry is “not soluble”; as for “MPEASHPDHLIRAGRLQADDARLFTPEADGPADQTPPDEPGWLVTLATWKAAAATLRARRHPVGVQLPPDARLDELTGPDGELDRAALSFIAIEFPVYTDGRGYSLAQLLRRRYGWDGELRAVGDVMIDTIHYQARVGFDSFLVKPGHDPQRALAAFRTFSVHYQHTYPAPLAA”, “not soluble”.

The values are drawn from the DeepSol protein solubility set.
